What follows are binders tested against T1, mesothelin (40 kDa, C-terminal domain of the mesothelin precursor polypeptide) (Homo sapiens (Human), UniProt Q13421 296-598) (assay: KD of Fab; method not stated).
T1 construct: Antigen of the Fab KD values
T1 sequence (Q13421 other isoform, or with tags, fused parts or gaps limits assumed): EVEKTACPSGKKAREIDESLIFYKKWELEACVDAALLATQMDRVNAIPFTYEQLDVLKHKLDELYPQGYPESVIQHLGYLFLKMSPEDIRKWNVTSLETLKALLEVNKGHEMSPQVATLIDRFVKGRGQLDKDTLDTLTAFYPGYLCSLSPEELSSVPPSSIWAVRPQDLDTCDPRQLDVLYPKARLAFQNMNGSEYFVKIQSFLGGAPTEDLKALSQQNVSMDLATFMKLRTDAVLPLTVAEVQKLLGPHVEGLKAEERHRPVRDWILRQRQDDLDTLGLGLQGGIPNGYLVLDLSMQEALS

| Binder | Kd [nM] |
| --- | --- |
| MF-T Fab (Fab, V domains shown, Tested as Fab ('KD of Fab'); the Fab constant domains are not) VH: QVELVQSGAEVKKPGESLKISCKGSGYSFTSYWIGWVRQAPGKGLEWMGIIDPGDSRTRYSPSFQGQVTISADKSISTAYLQWSSLKASDTAMYYCARGQLYGGTYMDGWGQGTLVTVSS VL: DIALTQPASVSGSPGQSITISCTGTSSDIGGYNSVSWYQQHPGKAPKLMIYGVNNRPSGVSNRFSGSKSGNTASLTISGLQAEDEADYYCSSYDIESATPVFGGGTKLTVLG | 16.3 |
| MF-J Fab (Fab, V domains shown, Tested as Fab ('KD of Fab'); the Fab constant domains are not) VH: QVELVQSGAEVKKPGESLKISCKGSGYSFTNYWIGWVRQMPGKGLEWMGVIMPSDSYTRYSPSFQGQVTISADKSISTAYLQWSSLKASDTAMYYCARYGHGMYGGALDVWGQGTLVTVSS VL: DIVLTQSPATLSLSPGERATLSCRASQSVRSSRLAWYQQKPGQAPRLLIYGASKRATGVPARFSGSGSGTDFTLTISSLEPEDFATYYCQQYYDFPPTFGQGTKVEIKR | 9.2 |
| MOR 06640 Fab (Fab, V domains shown, Tested as Fab ('KD of Fab'); the Fab constant domains are not; also called MOR6640) VH: QVQLVQSGAEVKKPGESLKISCKGSGYSFTNYWIGWVRQMPGKGLEWMGVIMPSDSYTRYSPSFQGQVTISADKSISTAYLQWSSLKASDTAMYYCARYGHGMYGGALDVWGQGTLVTVSS VL: not shown | 0.19 |
| MF-226 Fab (Fab, V domains shown, Tested as Fab ('KD of Fab'); the Fab constant domains are not) VH: QVELVQSGAEVKKPGASVKVSCKASGYTFTGNYINWVRQAPGQGLEWMGIINPHGGDTKYAQKFQGRVTMTRDTSISTAYMELSSLRSEDTAVYYCARWHHGTWIFDYWGQGTLVTVSS VL: DIVLTQPPSVSGAPGQRVTISCSGSSSNIGSNYVSWYQQLPGTAPKLLIYNDNQRPSGVPDRFSGSKSGTSASLAITGLQSEDEADYYCSTYDRRTFSVFGGGTKLTVLG | 58.3 |

What follows are binders tested against mesothelin expressed on cells (transfected MiaPaCa-2, HT29 C2, CHO A9; endogenous HelaMatu, OVCAR-3) (Homo sapiens (Human), UniProt Q13421 296-598) (assay: cell-based or functional assay).
mesothelin expressed on cells (transfected MiaPaCa-2, HT29 C2, CHO A9; endogenous HelaMatu, OVCAR-3), sequence (Q13421 other isoform, or with tags, fused parts or gaps limits assumed): as the sequence (Q13421 other isoform, or with tags, fused parts or gaps limits assumed) above

| Binder | IC50 (nM), cell viability (WST-1), CHO A9* (Mesothelin+) [nM] | IC50 (nM), cell viability (WST-1), HT29 C2 (Mesothelin+) [nM] | IC50 (nM), cell viability (WST-1), HelaMatu [nM] | IC50 (nM), cell viability (WST-1), MiaPaCa-2 (Mesothelin+) [nM] | IC50 (nM), cell viability (WST-1), OVCAR-3 [nM] |
| --- | --- | --- | --- | --- | --- |
| MF-T-SPDP-DM4 (antibody, DM4 maytansinoid conjugated via SPDB (printed SPDP in Table 2) linker; DM4/Ab 3.6; attachment residues not stated) VH: QVELVQSGAEVKKPGESLKISCKGSGYSFTSYWIGWVRQAPGKGLEWMGIIDPGDSRTRYSPSFQGQVTISADKSISTAYLQWSSLKASDTAMYYCARGQLYGGTYMDGWGQGTLVTVSS VL: DIALTQPASVSGSPGQSITISCTGTSSDIGGYNSVSWYQQHPGKAPKLMIYGVNNRPSGVSNRFSGSKSGNTASLTISGLQAEDEADYYCSSYDIESATPVFGGGTKLTVLGQDIVLTQPPSVSGAPGQRVTISCSGSSSNIGSNYVSWYQQLPGTAPKLLIYNDNQRPSGVPDRFSGSKSGTSASLAITGLQSEDEADYYCSTYDRRTFSVFGGGTKLTVLGQ | 1 | 1.5 | 0.45 | 1.3 | 2.8 |
| MF-J-SPDP-DM4 (antibody, V domains shown, DM4 maytansinoid conjugated via SPDB (printed SPDP in Table 2) linker; DM4/Ab 2.8; attachment residues not stated) VH: QVELVQSGAEVKKPGESLKISCKGSGYSFTNYWIGWVRQMPGKGLEWMGVIMPSDSYTRYSPSFQGQVTISADKSISTAYLQWSSLKASDTAMYYCARYGHGMYGGALDVWGQGTLVTVSS VL: DIVLTQSPATLSLSPGERATLSCRASQSVRSSRLAWYQQKPGQAPRLLIYGASKRATGVPARFSGSGSGTDFTLTISSLEPEDFATYYCQQYYDFPPTFGQGTKVEIKR | 0.35 | 0.3 | 0.2 | 1.4 | 0.9 |
| MOR06640-SPDP-DM4 (antibody, V domains shown, DM4 maytansinoid conjugated via SPDB (printed SPDP in Table 2) linker; DM4/Ab 3.6; attachment residues not stated) VH: QVQLVQSGAEVKKPGESLKISCKGSGYSFTNYWIGWVRQMPGKGLEWMGVIMPSDSYTRYSPSFQGQVTISADKSISTAYLQWSSLKASDTAMYYCARYGHGMYGGALDVWGQGTLVTVSS VL: not shown | 1.2 | 0.21 | 0.6 | 0.36 | 1.07 |
| MF-226-SPDP-DM4 (antibody, V domains shown, DM4 maytansinoid conjugated via SPDB (printed SPDP in Table 2) linker; DM4/Ab 3.3; attachment residues not stated) VH: QVELVQSGAEVKKPGASVKVSCKASGYTFTGNYINWVRQAPGQGLEWMGIINPHGGDTKYAQKFQGRVTMTRDTSISTAYMELSSLRSEDTAVYYCARWHHGTWIFDYWGQGTLVTVSS VL: DIVLTQPPSVSGAPGQRVTISCSGSSSNIGSNYVSWYQQLPGTAPKLLIYNDNQRPSGVPDRFSGSKSGTSASLAITGLQSEDEADYYCSTYDRRTFSVFGGGTKLTVLG | 1.3 | 8 | 0.9 | 21 | 14.8 |
